From publication PMC6501848

Columns and labels:
[1] = target: human CAP1 with C-terminal GFP and Strep-tag II (human) (UniProt Q01518); assay: co-purification
[2] = target: human CAP2 with C-terminal GFP and Strep-tag II (human) (UniProt P40123); assay: co-purification
[3] = target: co-expressed CAP1-GFP/CAP2-GFP (human) (UniProt Q01518); assay: co-purification
[4] = target: human INF2-nonCAAX full-length, untagged (human); assay: AUC
[5] = target: CAP in the brain inhibitory fraction (CAP1 and CAP2 of mouse brain) (mouse (endogenous in brain))
[6] = target: INF2-Cterm labeled with tetramethylrhodamine (human) (UniProt Q27J81); assay: fluorescence polarisation
[7] = target: GFP-Strep-tagged human INF2-nonCAAX full-length, purified (human)

untagged CAP co-purifying with CAP-GFP (likely endogenous HEK293 CAP), sequence (Q01518 whole entry): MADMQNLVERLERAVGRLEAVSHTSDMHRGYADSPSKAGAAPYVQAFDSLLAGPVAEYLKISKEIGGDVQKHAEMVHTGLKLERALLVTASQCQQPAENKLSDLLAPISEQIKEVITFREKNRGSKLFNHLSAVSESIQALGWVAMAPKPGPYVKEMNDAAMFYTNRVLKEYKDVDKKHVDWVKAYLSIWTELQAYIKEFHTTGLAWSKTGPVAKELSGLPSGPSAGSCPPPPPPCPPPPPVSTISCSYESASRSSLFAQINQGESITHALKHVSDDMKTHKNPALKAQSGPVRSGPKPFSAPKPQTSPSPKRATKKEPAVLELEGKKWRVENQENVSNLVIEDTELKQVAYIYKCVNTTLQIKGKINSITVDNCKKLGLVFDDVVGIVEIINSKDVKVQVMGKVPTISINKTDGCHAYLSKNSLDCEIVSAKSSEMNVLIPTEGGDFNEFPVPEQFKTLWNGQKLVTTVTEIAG
human CAP2 with C-terminal GFP and Strep-tag II (human), sequence (P40123 whole entry): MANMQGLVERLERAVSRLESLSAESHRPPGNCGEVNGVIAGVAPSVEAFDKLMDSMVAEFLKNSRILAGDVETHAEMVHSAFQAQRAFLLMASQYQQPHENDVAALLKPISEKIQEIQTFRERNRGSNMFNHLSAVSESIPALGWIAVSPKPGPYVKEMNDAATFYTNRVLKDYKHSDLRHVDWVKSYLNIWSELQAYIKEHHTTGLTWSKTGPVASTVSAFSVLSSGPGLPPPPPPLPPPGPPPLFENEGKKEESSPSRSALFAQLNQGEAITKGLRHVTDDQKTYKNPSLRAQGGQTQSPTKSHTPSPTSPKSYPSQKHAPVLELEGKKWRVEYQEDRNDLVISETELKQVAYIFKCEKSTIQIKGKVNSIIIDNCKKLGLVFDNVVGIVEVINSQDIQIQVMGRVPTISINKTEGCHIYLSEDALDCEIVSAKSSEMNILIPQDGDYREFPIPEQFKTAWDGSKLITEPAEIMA
co-expressed CAP1-GFP/CAP2-GFP (human), sequence (Q01518 whole entry, chain 1 of 2): as the sequence (Q01518 whole entry) above
co-expressed CAP1-GFP/CAP2-GFP (human), sequence (P40123 whole entry, chain 2 of 2, further chain): as the sequence (P40123 whole entry) above
human CAP1 with C-terminal GFP and Strep-tag II (human), sequence (Q01518 whole entry): as the sequence (Q01518 whole entry) above

mole percentage compared to CAP-GFP [1] [%]	mole percentage compared to CAP-GFP [2] [%]	mole percentage compared to CAP-GFP [3] [%]	Substance	also measured
82.5	88.1	90.5	actin of HEK293 cells co-purifying with recombinant CAP (from UniProt P60709 1-375) (natural protein)	
			human INF2-nonCAAX full-length, untagged (natural protein)	stoichiometry N [4]: 2
			mouse brain actin (from UniProt P60710 1-375) (natural protein)	mole percentage compared to CAP [5]: 107%
			untagged CAP2/actin complex purified from tubastatin A-treated 293 cells (from UniProt P40123;P60709)	Kd [6]: 1.82 µM; IC50 of inhibition of INF2-mediated actin polymerization, pyrene-actin assay [7]: 0.263 µM
16.8	16.3	16.5	untagged CAP co-purifying with CAP-GFP (likely endogenous HEK293 CAP) (from UniProt Q01518 1-475) (natural protein)	
